Measurements: US20200255529A1 (PIONYR IMMUNOTHERAPEUTICS, published 2020)

T1: cynomolgus TREM1 on cells (cynomolgus, UniProt A0A2K5VHG8 21-233)
T1 construct: whole, on cells; Used for HEK293 cells over-expressing cynomolgus TREM1 and for primary cynomolgus monocytes; also called cynoTREM1; Cyno TREM1 cells
T1 sequence: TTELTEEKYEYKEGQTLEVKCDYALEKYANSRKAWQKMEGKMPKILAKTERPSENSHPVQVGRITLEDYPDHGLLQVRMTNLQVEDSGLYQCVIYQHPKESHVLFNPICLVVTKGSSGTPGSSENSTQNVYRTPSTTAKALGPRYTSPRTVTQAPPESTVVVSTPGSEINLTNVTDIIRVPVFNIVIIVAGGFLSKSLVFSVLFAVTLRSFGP

T2: Chimeric cynomolgus TREM1-mIgG Fc (cynomolgus, UniProt A0A2K5VHG8 21-204)
T2 construct: not shown: mouse IgG Fc
T2 sequence: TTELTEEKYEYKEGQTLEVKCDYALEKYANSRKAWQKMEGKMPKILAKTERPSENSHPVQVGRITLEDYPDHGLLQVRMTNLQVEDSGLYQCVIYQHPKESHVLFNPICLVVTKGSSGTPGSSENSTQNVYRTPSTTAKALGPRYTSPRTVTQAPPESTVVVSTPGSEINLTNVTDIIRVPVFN

T3: Fc-tagged recombinant mouse TREM1 (R&D systems #1187-TR) (mouse, UniProt Q9JKE2 21-202)
T3 construct: Bought reagent; not shown: Fc tag
T3 sequence: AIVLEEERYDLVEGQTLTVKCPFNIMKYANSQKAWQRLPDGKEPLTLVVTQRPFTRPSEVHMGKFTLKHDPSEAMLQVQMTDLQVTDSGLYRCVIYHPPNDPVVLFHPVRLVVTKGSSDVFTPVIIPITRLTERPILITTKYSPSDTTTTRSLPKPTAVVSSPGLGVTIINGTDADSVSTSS


Key:
[1] = molecular target: hCD16 on NFAT-luciferase reporter Jurkat cells (Promega) (human, UniProt P08637 17-254); test: cell-based or functional assay
[2] = molecular target: T1, cynomolgus TREM1 on cells; test: flow cytometry on HEK293 cells over-expressing cynomolgus TREM1; cells overexpressing cynomolgus TREM1; EC50 about 12-fold weaker than parent (4.61 nM); background binding Y
[3] = molecular target: T2, Chimeric cynomolgus TREM1-mIgG Fc; test: SPR (Biacore T200), avid format: cynomolgus TREM1-mIgG Fc captured, antibody as analyte
Experimental: All data were collected at 25° C. 10 mM HEPES pH 7.4, 150 mM NaCl, 3 mM EDTA, 0.05% (v/V) surfactant P20 was used as mobile buffer and for all dilution of mAbs. Anti-mouse Fc was immobilized on a CM4 biosensor chip (GE Healthcare) using amine coupling chemistry. Chimeric cynomolgus TREM1-mIgG Fc was captured on one flow cell and another flow cell (used as reference surface) was left blank. […] After each cycle, the surface was regenerated by injecting a glycine HCl buffer (10 mM, pH 2.0). BIAevaluation software was used to perform the kinetic evaluation. Kinetic evaluation was through generation of sensorgrams which were fitted with a 1:1 Langmuir binding model.

[4] = molecular target: T1, cynomolgus TREM1 on cells; test: flow cytometry on HEK293 cells over-expressing cynomolgus TREM1; cells overexpressing cynomolgus TREM1; EC50 about 6-fold weaker than parent (4.61 nM)
[5] = molecular target: T3, Fc-tagged recombinant mouse TREM1 (R&D …); test: MSD ligand binding PK assay, plate coated with Fc-tagged recombinant mouse TREM1
Experimental: A 96-well high-binding MSD plate was coated with Fc-tagged recombinant mouse TREM1 (R&D systems #1187-TR). After blocking, samples were added to the plate which bound the TREM1 protein. […] ECL signal was produced by the secondary antibody after the plate received an electric signal from an MSD plate reader. The ECL signal was detected and quantified by the plate reader.

hCD16 on NFAT-luciferase reporter Jurkat cells (Promega), sequence (P08637 17-254 F176V): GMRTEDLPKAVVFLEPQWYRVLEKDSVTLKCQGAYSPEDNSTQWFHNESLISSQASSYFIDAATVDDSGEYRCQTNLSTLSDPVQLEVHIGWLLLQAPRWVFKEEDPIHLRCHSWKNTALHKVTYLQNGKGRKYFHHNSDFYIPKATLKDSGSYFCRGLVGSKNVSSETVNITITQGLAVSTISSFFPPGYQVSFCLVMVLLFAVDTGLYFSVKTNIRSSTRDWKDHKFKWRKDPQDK

Row | hCD16 ADCC assay EC50 [1] [nM] | EC50 [2] [nM] | Kd [3] [nM] | EC50 [4] [nM] | binding result [5] | Binder
1 | 3.18 | 58 | 6.19 | – | – | PI-4026-5-M100E (fucosylated) (antibody, human IgG1, kappa) heavy: not shown light: DIQLTQSPSSLSASVGDRVTITCSASSSVSYMHWYQQKPGKAPKLLLYTTSNLASGVPSRFSGSGSGTDYTLTISSLQPEDFATYYCHQWSGYPTFGQGTKLEIKRTVAAPSVFIFPPSDEQLKSGTASVVCLLNNFYPREAKVQWKVDNALQSGNSQESVTEQDSKDSTYSLSSTLTLSKADYEKHKVYACEVTHQGLSSPVTKSFNRGEC
2 | 6.92 | – | 11.8 | 28.6 | – | PI-4026-5-M100I (fucosylated) (antibody, human IgG1, kappa) heavy: not shown light: DIQLTQSPSSLSASVGDRVTITCSASSSVSYMHWYQQKPGKAPKLLLYTTSNLASGVPSRFSGSGSGTDYTLTISSLQPEDFATYYCHQWSGYPTFGQGTKLEIKRTVAAPSVFIFPPSDEQLKSGTASVVCLLNNFYPREAKVQWKVDNALQSGNSQESVTEQDSKDSTYSLSSTLTLSKADYEKHKVYACEVTHQGLSSPVTKSFNRGEC
3 | – | – | – | – | binds | afucosylated PI-4928 anti-TREM1 antibody (antibody, mouse IgG2a, kappa, V domains shown, afucosylated, Anti-mouse TREM1 surrogate, mIgG2a) VH: QVQLKESGPGLVQPSQTLSLTCTVSGFSITSSNVYWFRQPPGKGLEWMGNIWGDGSTDYNSSLKSRLTLSRDTSKNQVFLKINSLQSEDTATYFCTRSWEYYFDHWGQGVVVTVSS VL: DIVLTQSPALAVSPGQRATLSCRASQSVTLSNVNLMNWYQQKPGQQPKLLIYHASNLASGIPTRFSGSGSGTDFTLTIDPVQADDIAAYYCQQSGESPRTFGGGTKVELKR
